The test addresses rDR5-IgG4-Fc (UniProt O14763). The test is described as follows: BLI. On the technique in general: Biolayer interferometry detects binding as a change in optical thickness at a sensor tip.

Kd data for 1 substance are collected here from patent publication US20250376532A1.

pKd: −log10 of the molar value.

On to AMG655, for which the negative-log Kd (pKd) – broadly, −log10 of the Kd, conventionally taken in molar units – was 9.99.
